Assay results published in the supplement of paper PMC10126150.
± gives the standard deviation of the averaged measurements.

Test system: ATP
Assay: switch fluorescence ratio, 500 uM ATP over buffer (Cy3 cluster intensity, sum of 5 cycles each) (fold (ratio)); higher = stronger signal-on switching upon ATP binding; sequences stand for … in TCGTCGGCAGCGTCAGATGTGTATAAGAGACAGTTTTTTTTTTTTTTTTTTTTTTTTT…TC
Details: aptamer strand: ATP DNA aptamer (quencher-CACCTGGGGGAGTATTGCGGAGGAAGG + anchor), 100 nM annealed; ATP concentration: 500 uM
Procedure, shortened: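 After annealing to 100 nM quencher-labelled ATP aptamer, Cy3-labelled switching-strand clusters on a modified Illumina MiSeq flow-cell were imaged in selection buffer. A second image followed after 15 min with 500 uM ATP at 22 °C, and five such buffer/ATP cycles were done, each separated by NaOH stripping and re-annealing. The fluorescence ratio, averaged per switch-domain sequence, is summed target-cycle over summed buffer-cycle Cy3 intensity per cluster, with clusters outside 100-1000 RFU excluded.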
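Note: ATP exposure 15 min at 22 °C before imaging.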

| Sequence | switch fluorescence ratio |
| --- | --- |
| TGGTGGAAAC | 0.99116 ± 0.00084 |
| TGGTGGAGAT | 1.01 ± 0.028 |
| TGGTGGAGCA | 0.986 ± 0.024 |
| TGGTGGGGCT | 0.994 ± 0.026 |
| TGGTGGGGTT | 0.984 ± 0.02 |
| TGGTGGTGCA | 1.04 ± 0.039 |
| TGGTGGTGTA | 0.954 ± 0.035 |
| TGGTGTATCC | 0.985 ± 0.019 |
| TGGTGTCAAT | 1 ± 0.017 |
| TGGTGTCAGT | 0.977 ± 0.022 |
| TGGTGTCGGG | 0.998 ± 0.013 |
| TGGTGTCGTG | 0.999 ± 0.034 |
| TGGTGTTTTT | 0.992 ± 0.027 |
| TGGTTACCAT | 1.02 ± 0.057 |
| TGGTTAGCG | 1.04 ± 0.024 |
| TGGTTAGGGA | 1.01 ± 0.026 |
| TGGTTAGGTT | 0.966 ± 0.013 |
| TGGTTAGTTG | 0.994 ± 0.013 |
| TGGTTCAGGG | 0.997 ± 0.04 |
| TGGTTCAGGT | 1.02 ± 0.022 |
| TGGTTCAGTG | 0.993 ± 0.048 |
| TGGTTCCCTT | 1.02 ± 0.07 |
| TGGTTCCGGG | 1.01 ± 0.02 |

| Sequence | switch fluorescence ratio |
| --- | --- |
| TGGTTGAAT | 1.01 ± 0.049 |
| TGGTTGAGTT | 0.973 ± 0.021 |
| TGGTTGTAAG | 1.03 ± 0.024 |
| TGGTTGTGAG | 1 ± 0.0065 |
| TGGTTGTTGC | 0.998 ± 0.043 |
| TGGTTGTTGT | 0.96 ± 0.014 |
| TGGTTTAACG | 0.99243 ± 0.00051 |
| TGGTTTCCGT | 0.991 ± 0.027 |
| TGGTTTGAGG | 0.989 ± 0.035 |
| TGGTTTTAAG | 0.98 ± 0.024 |
| TGGTTTTACG | 1.019 ± 0.01 |
| TGGTTTTATT | 1.01 ± 0.043 |
| TGGTTTTGGA | 0.976 ± 0.056 |
| TGGTTTTTGT | 1.1 ± 0.2 |
| TGGTTTTTTG | 0.996 ± 0.017 |
| TGTAAACGGG | 1.09 ± 0.12 |
| TGTAAATAAG | 0.991 ± 0.043 |
| TGTAACCCAT | 1.02 ± 0.061 |
| TGTAACGAAA | 1.008 ± 0.0027 |
| TGTAACGGGG | 1.03 ± 0.032 |
| TGTAAGACCC | 1.06 ± 0.033 |
| TGTAAGAGTG | 0.983 ± 0.021 |
| TGTAATACGT | 1.17 ± 0.019 |

| Sequence | switch fluorescence ratio |
| --- | --- |
| TGTAATCCGG | 0.986 ± 0.012 |
| TGTAATCTAC | 1.06 ± 0.057 |
| TGTAATGGTT | 1.004 ± 0.01 |
| TGTACGGGGA | 0.995 ± 0.03 |
| TGTAGAGGTG | 1.09 ± 0.022 |
| TGTAGCAGCT | 1.12 ± 0.045 |
| TGTAGCTTGT | 1.09 ± 0.075 |
| TGTAGGGGAA | 0.996 ± 0.011 |
| TGTAGGGGGC | 1.27 ± 0.39 |
| TGTAGGGTTC | 1.12 ± 0.19 |
| TGTAGTAGCG | 0.9901 ± 0.0064 |
| TGTAGTTGTG | 1.02 ± 0.061 |
| TGTAGTTTAG | 1.01 ± 0.032 |
| TGTAGTTTGT | 0.973 ± 0.034 |
| TGTATGGTTT | 0.971 ± 0.048 |
| TGTATGTCGG | 0.959 ± 0.03 |
| TGTATTCAAT | 0.986 ± 0.013 |
| TGTATTCAGG | 1.01 ± 0.056 |
| TGTATTTTT | 0.98586 ± 0.00097 |
| TGTCACTGTG | 0.979 ± 0.049 |
| TGTCAGGGCC | 1.04 ± 0.053 |
| TGTCAGTGCT | 1.015 ± 0.0066 |
| TGTCAGTTTC | 0.987 ± 0.018 |

| Sequence | switch fluorescence ratio |
| --- | --- |
| TGTCCAGCTC | 1.49 ± 0.65 |
| TGTCCCTCTT | 1.02 ± 0.053 |
| TGTCCGGGGG | 0.994 ± 0.029 |
| TGTCGGGATT | 1.03 ± 0.053 |
| TGTCGGGGGT | 1.22 ± 0.18 |
| TGTCGTTATT | 0.9546 ± 0.0018 |
| TGTCTATTTT | 1.019 ± 0.0033 |
| TGTCTGGGGG | 1.01 ± 0.025 |
| TGTCTTTATT | 0.988 ± 0.016 |
| TGTGAAGTTT | 0.9595 ± 0.0076 |
| TGTGAGAGGG | 1 ± 0.019 |
| TGTGAGAGTT | 0.9826 ± 0.0098 |
| TGTGAGCAGG | 1.15 ± 0.044 |
| TGTGAGCCTG | 0.98 ± 0.092 |
| TGTGAGCTGT | 1.0077 ± 0.00016 |
| TGTGAGGCGG | 1.04 ± 0.11 |
| TGTGAGGGGT | 0.994 ± 0.033 |
| TGTGAGGTGT | 1.02 ± 0.062 |
| TGTGAGTAGG | 1.02 ± 0.017 |
| TGTGAGTGTG | 0.983 ± 0.015 |
| TGTGATAGAG | 0.989 ± 0.029 |
| TGTGATGAGT | 0.992 ± 0.024 |
| TGTGATGGTT | 1.005 ± 0.0013 |

| Sequence | switch fluorescence ratio |
| --- | --- |
| TGTGATTTAA | 1.002 ± 0.0028 |
| TGTGATTTAT | 1.0046 ± 0.00072 |
| TGTGATTTGA | 0.9763 ± 0.0026 |
| TGTGCAATGT | 1.3 ± 0.029 |
| TGTGCCCCTT | 0.991 ± 0.042 |
| TGTGCTCGGA | 1.04 ± 0.1 |
| TGTGCTGGGT | 1.02 ± 0.024 |
| TGTGGAAGGT | 0.9999 ± 0.0078 |
| TGTGGCAAGA | 1.14 ± 0.14 |
| TGTGGCGGGA | 1.06 ± 0.13 |
| TGTGGCTCTG | 0.9571 ± 0.0087 |
| TGTGGGATAC | 1.2 ± 0.015 |
| TGTGGGCGC | 1.01 ± 0.098 |
| TGTGGGGACC | 1.05 ± 0.05 |
| TGTGGGGAGG | 0.969 ± 0.027 |
| TGTGGGGCAA | 1.05 ± 0.019 |
| TGTGGGGGAT | 1.01 ± 0.06 |
| TGTGGGGTAG | 1.01 ± 0.029 |
| TGTGGGTGAG | 1 ± 0.02 |
| TGTGGTAGAA | 0.989 ± 0.023 |
| TGTGGTATTA | 0.976 ± 0.036 |
| TGTGGTATTT | 0.972 ± 0.027 |
| TGTGGTGCGA | 0.995 ± 0.029 |

| Sequence | switch fluorescence ratio |
| --- | --- |
| TGTGGTGGGG | 0.996 ± 0.042 |
| TGTGGTGGGT | 1.042 ± 0.0097 |
| TGTGTAAAGT | 1.82 ± 1.2 |
| TGTGTAATTG | 1.01 ± 0.032 |
| TGTGTATTGT | 0.985 ± 0.031 |
| TGTGTCAGCT | 0.9981 ± 0.0041 |
| TGTGTCATGT | 0.989 ± 0.013 |
| TGTGTCTGTT | 0.9933 ± 0.0025 |
| TGTGTCTTTT | 1.01 ± 0.047 |
| TGTGTGAGT | 0.964 ± 0.013 |
| TGTGTGAGTG | 0.981 ± 0.054 |
| TGTGTGCCGG | 0.9332 ± 0.0057 |
| TGTGTGTTTA | 1.01 ± 0.012 |
| TGTGTGTTTG | 0.989 ± 0.015 |
| TGTGTTATAC | 1.05 ± 0.043 |
| TGTGTTATGT | 1.03 ± 0.038 |
| TGTGTTATTT | 0.999 ± 0.024 |
| TGTGTTCACA | 0.98 ± 0.0058 |
| TGTGTTCACT | 1.01 ± 0.036 |
| TGTGTTCCGA | 0.9975 ± 0.0083 |
| TGTGTTTAGT | 1.01 ± 0.013 |
| TGTGTTTATA | 1.013 ± 0.0095 |
| TGTGTTTGAG | 0.972 ± 0.051 |

| Sequence | switch fluorescence ratio |
| --- | --- |
| TGTTAAACGG | 1.01 ± 0.039 |
| TGTTAATGGG | 0.997 ± 0.016 |
| TGTTACTCCT | 1.09 ± 0.026 |
| TGTTAGGGTT | 1.01 ± 0.04 |
| TGTTAGTCTA | 0.9884 ± 0.0052 |
| TGTTATAAAT | 0.999 ± 0.032 |
| TGTTATACGT | 1.02 ± 0.019 |
| TGTTATGAGT | 0.99 ± 0.036 |
| TGTTATGGGT | 1.04 ± 0.039 |
| TGTTATGTTT | 0.99 ± 0.032 |
| TGTTATTGAA | 0.992 ± 0.046 |
| TGTTATTGGT | 1.01 ± 0.015 |
| TGTTATTTGT | 0.975 ± 0.048 |
| TGTTCAGACG | 1.03 ± 0.053 |
| TGTTCCGTAT | 0.993 ± 0.044 |
| TGTTCGACCG | 1.012 ± 0.01 |
| TGTTCGGGAT | 0.977 ± 0.01 |
| TGTTCTTAGT | 1 ± 0.048 |
| TGTTGAAAAG | 0.979 ± 0.01 |
